Source: the DeepSol protein solubility set

Assay: soluble on expression in E. coli; label from the status in PepcDB or PDB records

Sequence	soluble on expression in E. coli
MNKQIDLPIADVQGSLDTRHIAIDRVGIKAIRHPVVVADKGGGSQHTVAQFNMYVNLPHNFKGTHMSRFVEILNSHEREISVESFEEILRSMVSRLESDSGHIEMAFPYFINKSAPVSGVKSLLDYEVTFIGEIKHGNQYSFTMKVIVPVTSLCPCSKKISDYGAHNQRSHVTISVRTNSFIWIEDIIRIAEEQASCELYGLLKRPDEKYVTERAYNNPKFVEDIVRDVAEVLNHDDRIDAYIVESENFESIHNHSAYALIERDKRIR	soluble
MPEKYTTPYPARRIHSDGRAEDTEVLLAKECPVKLFLDGKQFTTLFASPLELKELAVGHLITEGILSFKEIAGVEVEGNEVHILTLKGKHPIQDESSRPAGGETKKQIFVNSDAVFDPEALFEGIAYLESDTYKLTRGTHLAALIDKKGKLAVQIVDVGRHNAVDKVVGAAFLRMIDLSQHYMLSTGRQPAYMVTKAARAGIPLVATKAMPFDSGVEAAKKANLCLVGQLRKESMLVFTNEWRVRIAAALEHHHHHH	not soluble
MSLVTRSVLKFGGSSVSDFTKIKRIAEMLKERVNQDEQLIVVVSAMGNTTDQLMTNVSTLTKAPKQQELALLLTTGEQQTVSYLSMVLNDIGVNAKAMTGYQAGIKTIGHHLKSKIAQINPQTFEQAFQENDILVVAGFQGINEHQELTTLGRGGSDTTAVALAVSNQIPCEIYTDVDGVYATDPRLLPKAKRLDIVSYEEMMEMSALGAGVLETRSVELAKNYNIPLYLGKTLSNVKGTWIMSNEEILEKKAVTGVALDKHMMHVTISYPLPDNQLLTQLFTELEEGAVNVDMISQIVNLDGLQLSFTIKDSDFHQISMILETLKNQYEALAYKINEHYVKISLIGSGMRDMSGVASKAFLTLIENNIPFYQTTTSEISISYVIDDFNGQQAVEKLYDAFNIEGHHHHHH	soluble
MMRRGGQHLSPDPIGLGGGIQPQSYVHNPLEWVDPLGLTESGCKQPNSPENSQKPEVKKPNISTKIHDGAQGKHIEGHNNYVEGKSVIDAKPQELLDNYHAGNVNTSRVINENKIKVDFGDVNGTHKDMNGTNTSTSWGLIHSRKNGAHIVPALPDTILEHHHHHH	not soluble
MGSDKIHHHHHHMCNYNQLFENIAELVMHHSPSGAEAEINQLLLQKFAALGVEVWSDRADNIIAKIPGKNSERAVAITAHKDEIGAIVKNIGDAGKVEVRKLGGAYPWVYGEGVVDLLGDNETISGILSFGSRHVSHESPQKVQQEDTAVKWENAWIETKRTTEELEIAGIRPGTRMVIGKHRKHPVKLQDHIASYTLDNKASVAILLALAQQLKQPAMDVYLVASAKEEVGAIGALFFTQNQQLDALIALEICPLSEEYPVKDSENPVLLIQDAYGIYDEGLNGELRQCAKQLNMPVQLTTLSGFGSDASIAMKFGHVGRAACLAFPTQNTHGYEIAHLGAISNCINLLKAFCETEF	not soluble
TDIVLWDKPGEKVLLLGNQAIVRGALEGNIGVYAAYPGTPSSEITDTMAMVAKKAGVYMEYSTNEKVAFETALSASWAGLRAMTAMKHVGLNVAMDSFMTVSYMGINGGLIVVVADDPSMWSSQNEQDTRAIAKFANIPVLEPSSVQEAKDMVKYAFEISEKYGQMVILRTTTRSSHMRGDVVLGELPQEIKEGKRKFGNFKKNPEKYVDIPAFQRPKHPWLLETIEKFREEFNTSPFNWIEGPEDAKVGIIAPGLSYAYVKEALAWLGIDNVKILKLGTPFPVPYGLLEKFFNGLERVLIVEELEPVVEEQVKVWAFDNNINIEIHGKDLVPRVYEMTTRRAVEAVAKFLGVETPINFQEIDEKYKKVQEMVPPRPPSLCPACPHRNTFFAIRKAATPRAIFPSDIGCYTLGVLPPLKTVDTTIAMGGSIGVAHGLSIALNGALGEEQRKTGKEKKIIVATIGDSTFFHTGLPALANAIYNRSNVLIVVMDNMVTAMTGDQPNPGTGETPHGPGKRILIEEVARAMGADFVAVVDPYDIKETYETIKKALEVEGVSVVVSRRACALYRIGQLRREGKQWPIYQVNEEKCTGCKICINAYGCPAIYWDAEK	not soluble
MGSDKIHHHHHHMDIELREKIAGEITLSDSPAETIRKWREEFKVSQLELSNFLNQSPSVISDYETGRRKFPSIASVRKIVDALITIDERRGGYVIKKYKSGVPSDALIDIKDYDRDVPLEKAIRAMNGKNVSHVSVERNIRGYTIVDGVKAILAFSYYEYSKLYGWSSERAIFFTDVKFGRSPMIAIRVHPLKPAAVVYIQPDNVDDLAIKLADIENIPLLITEMSPEAVSHVMSQLR	not soluble
MAHHHHHHMSAVLMAAVKVWTGNVRACLRVHHDTRTFCKAMKMRNLPVVLLDGVRFASLESVQHGKVRTRKDVVSGDLCVAIRKLNGVELMDDVQPRDPAIFLRDEKSKTFSAEEAREIYSIIVKSLSHILVVDSEVKTVECGIKRIMGNSTATEPETPKLTDLIRWLKSNMSTHDVLPIFSTQDRTVTFFVNQKIFRRIGHSDNGRRKK	not soluble
MHHHHHHSSGVDLGTENLYFQSMVPPIPKQDGGEQNGGMQCKPYGAGPTEPAHPVDERLKNLEPKMIELIMNEIMDHGPPVNWEDIAGVEFAKATIKEIVVWPMLRPDIFTGLRGPPKGILLFGPPGTGKTLIGKCIASQSGATFFSISASSLTSKWVGEGEKMVRALFAVARCQQPAVIFIDEIDSLLSQRGDGEHESSRRIKTEFLVQLDGATTSSEDRILVVGATNRPQEIDEAARRRLVKRLYIPLPEASARKQIVINLMSKEQCCLSEEEIEQIVQQSDAFSGADMTQLCREASLGPIRSLQTADIATITPDQVRPIAYIDFENAFRTVRPSVSPKDLELYENWNKTFGCGK	soluble
TNTEQFCTGCHEMRDNVYAELKGTIHYTNRSGVRAICSDCHVPHNWTDKIARKTQASKEVWGKIFGTINTREKFVEKRLELAQHEWARLKANDSLECRNCHNYESMDFTRQSMRAQNMHSTYLADKSKTCIDCHKGIAHTLPRMPPDQTSLAPPAAGPARADTGHAER	not soluble
MGSDKIHHHHHHMKFSLGPSLFFWPKNEVVDFYQQAKESSADVIYLGETVCSKRRELRAKDWLGLAQDVAQDTNKQVVVSTMTLLESPAEIQVLKRLCDNGEFLVEANDLSAVQIMHELKMPFVAGPAINCYNLSTLKVLLKQGMTRWLMPVELSGDWLKILLEQATEAGIRQQFECEVFSWGYLPLAYSARCFTARSEDKAKDDCEYCCIKYPEGRRMNSREGERVFVLNGIQTLSGYQYNLINEMPALDAMGVDIARISADSTEAFTQLDNFREQLVNPTRKELDGVTECNGFWHKIAGMSVA	not soluble
DISEELDYERGRYLDAMIDNHKYTGKARAIIYGQPELALALAKVCFENGVNVKLIALGAKNKILEEALKEEIKSQREEVLVLDDTDFDTIEKYAKEFNVNLFIGNSDGRRMASRLGIEIIRVGFPIHDRV	not soluble
MGSDKIHHHHHHMLDLKQIGASESRQLKQAHDRGQLSHAYLLLSSDEVEALNTAYWLICYVNCTGEKKPDGTCPACRRILAGNHPDVFLIDTEENKQSIAIDQIRPLKQELAKSPLEGDRRYFVINHAQKLTLPAANALLNLLEEPAAPVVTFLIANNGGQILPTIKSRTQIINFSQQAASSKDRLLLANGMSQEEVDQVKSSQEVDQAVKFFYQELREHDSLAIVSAHQLAGLVKKQKQGTKAWEKYVWILLKKWGEKDLEKGDCQEAANFLADLMRVDQMRQSNVGFLNNLDYLALKWQQ	not soluble
MSLKMFEVPVSSVSISINSALLKGCRKFMVLGYGEIGKLAIKHLLSHKVECIYLIVRDKSKASDLEGEIVEVLDFNEKNQVINEIDCIVSCTAAPHTVVRNEDIKTEGETIHIYDLAVPRDVDKELSEKERVILKDIDEISKIDDKNKKIRKERMEEYKHIVEESIDEFLNWLKIREVSSKIRNIKIREGHHHHHH	not soluble
MKQIAFIGLGHMGAPMATNLLKAGYLLNVFDLVQSAVDGLVAAGASAARSARDAVQGADVVISMLPASQHVEGLYLDDDGLLAHIAPGTLVLECSTIAPTSARKIHAAARERGLAMLDAPVSGGTAGAAAGTLTFMVGGDAEALEKARPLFEAMGRNIFHAGPDGAGQVAKVCNNQLLAVLMIGTAEAMALGVANGLEAKVLAEIMRRSSGGNWALEVYNPWPGVMENAPASRDYSGGFMAQLMAKDLGLAQEAAQASASSTPMGSLALSLYRLLLKQGYAERDFSVVQKLFDPTQGQ	soluble
MSLRKFIDLHLHLDGSVPVSTVKKLMQEHDLPIPTDQELRQELSVDSSCKSLDQFLEKFALPNKLMQTRHDLETIVYDLLTELKAQGLVYAEIRFAPQLHTKEGLTQEDAIKAAISGLNKFLYDQKEKNDSPELHAGLILCLMRFSNNQKENIETVELAKKFLNKGVVGLDLAGAEGPIPNIKYKSFFNQAQQLGVPYTIHAGEADGPDSIRQALAMGAKRIGHGIRCTEDTQLTQELIDQQIVLECCATSNMNTKAFDQIDSYPIKKLLHKGMKVTLNSDDMTVSDTNLLHEYKVLEKRTDLTPEEETTLYLNAVDAAFTTPDEKIRLRAFLQKEGHHHHHH	soluble
GGSVLAERAGIDPTAILRDFDRGRTSTLPDGRTLREWDIVAVDKDFEIAPGIIFKGWSYNGRIPGPTLWAREGDALRIHFTNAGAHPHTIHFHGVHRATMDGTPGIGAGSIAPGQSFTYEFDATPFGTHLYHCHQSPLAPHIAKGLYGGFIVEPKEGRPPADDEMVMVMNGYNTDGGDDNEFYSVNGLPFHFMDFPVKVKQHELVRIHLINVLEYDPINSFHIHGNFFHYYPTGTMLTPSEYTDTISQVQGQRGILELRFPYPGKFMFHAHKTEFAELGWMGFFEVSA	soluble
ATSDSNMLLNYVPVYVMLPLGVVNVDNVFEDPDGLKEQLLQLRAAGVDGVMVDVWWGIIELKGPKQYDWRAYRSLLQLVQECGLTLQAIMSFHQCGGNVGDIVNIPIPQWVLDIGESNHDIFYTNRSGTRNKEYLTVGVDNEPIFHGRTAIEIYSDYMKSFRENMSDFLESGLIIDIEVGLGPAGELRYPSYPQSQGWEFPGIGEFQCYDKYLKADFKAAVARAGHPEWELPDDAGKYNDVPESTGFFKSNGTYVTEKGKFFLTWYSNKLLNHGDQILDEANKAFLGCKVKLAIKVSGIHWWYKVENHAAELTAGYYNLNDRDGYRPIARMLSRHHAILNFSCLEMRDSEQPSDAKSGPQELVQQVLSGGWREDIRVAGENALPRYDATAYNQIILNARPQGVNNNGPPKLSMFGVTYLRLSDDLLQKSNFNIFKKFVLKMHADQDYCANPQKYNHAITPLKPSAPKIPIEVLLEATKPTLPFPWLPETDMKVDG	soluble
MGSDKIHHHHHHMSTDTDDDSGSHGCKAPDSDGEVAENIAIVAFERKMDTAEDIVDGIGDRYESIDILEYHGDVFEEYWGEYDCFIGLMASGIAMRKTAHLLDDKWDDPAICVVDEELTWAIPITGGHHGANQVADDLASMGAVPAMTTASEAADKQGVEKQAKALDAHVVNGDSTVATNLAVLDDELGPIERLDGPKAVLVDDDVTVLKRNKDDGIVLGCGSVAGADVEQFHAAWEQALDEADLDRDDVEFVATGTRKADEEGMLAAAEEWGLGVIAFEKETLEGFEGPTPSRSKELIGWPGIAEASAIAAGSEHDLLAEKTRYDEAVTVAIGR	not soluble
